Experimental data: patent US20150320848A1

How the values were obtained:
Test in all cases: REVEAL MHC-peptide binding assay; score relative to positive control
HLA-DR1 = biological target: HLA-DR1
HLA-DR7 = biological target: HLA-DR7
HLA-DR2 = biological target: HLA-DR2
HLA-DR4 = biological target: HLA-DR4
HLA-DR5 = biological target: HLA-DR5

Measured: binding score (% compared to the positive control)

GNQLFRINEANQLMQ [GALNT7-001]
not listed: HLA-DR5
> 15%: all other assays above

FEGQFSINKVPGNFHVS [ERGIC1-001]
> 15%: HLA-DR5 | HLA-DR4
